Molecular target: the molecule itself
Assay: PFG-NMR translational diffusion

B1: Sml1 (suppressor of Mec1 lethality), full length wild type (natural protein, S. cerevisiae, UniProt Q04964 1-104, looked up)
chain: MQNSQDYFYAQNRCQQQQAPSTLRTVTMAEFRRVPLPPMAEVPMLSTQNSMGSSASASASSLEMWEKDLEERLNSIDHDMNNNKFGSGELKSMFNQGKVEEMDF
Protein B1 has a Kd of 93 ± 25 µM.

— paper PMC2747730 (Biochemistry, 2008)
